The record followed here is article doi:10.1101/489906 (bioRxiv, 2018).

Assay [1] concerns the target Saga-2006 GII.4 VLPs (Norovirus Hu/GII.4/Saga4/2006/JP …, UniProt B5BTR7, strain). Put plainly: ELISA. In general terms: ELISA stands for enzyme-linked immunosorbent assay.
Assay [2] concerns the target CHDC-1974 GII.4 VLPs (Norovirus Hu/GII.4/CHDC2094/1974/US …, UniProt D0QJ68, strain). Put plainly: ELISA.
Assay [3] deals with T1, NSW-2012 GII.4 P domain (Norovirus …, strain).
T1 chain: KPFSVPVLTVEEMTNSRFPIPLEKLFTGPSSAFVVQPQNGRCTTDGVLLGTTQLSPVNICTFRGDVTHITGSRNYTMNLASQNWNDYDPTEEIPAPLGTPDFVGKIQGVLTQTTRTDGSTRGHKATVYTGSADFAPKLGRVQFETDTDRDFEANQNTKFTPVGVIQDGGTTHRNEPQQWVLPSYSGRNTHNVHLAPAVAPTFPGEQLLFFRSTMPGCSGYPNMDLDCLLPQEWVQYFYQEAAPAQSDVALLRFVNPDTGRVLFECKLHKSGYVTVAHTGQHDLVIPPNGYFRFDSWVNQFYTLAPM
Put plainly: ITC. For orientation: In ITC the heat of successive injections is recorded.

B1: 10E9 MAb (IgG) (antibody, V domains shown)
VH: QVQLQQSGAELMKPGASVKISCTATGYTFITYWIQWVKQRPGHGLEWIGETLPGSGSTNYNEKFKGKATFTADTSSNTAYMQLSSLTSEDSAIYYCARIGRSNDYWGQGTTLTVSS
VL: QIVLTQSPTIMSASPGEKVTMTCSASSSVDYMHWYQQKSGTSPKRWIYDTYKLASGVPARFSGSGSGTSYSLTINSMEAEDAATYYCQQWSSNPLTFGAGTKLELK
Turning to B1, the binding result in assay [1] is recorded as “binds”. For the same molecule, the binding result in assay [2] is “no binding”. In addition, in assay [3], the equilibrium dissociation constant (Kd) was found to be 59 nM, the dH is -4.3 ± 0.011 kcal/mol and the “stoichiometry N” value came to 0.98.

As a reminder, the Kd is the equilibrium constant for the complex coming apart. The low end stands for higher affinity, the high end for lower affinity. For orientation: stoichiometry N means the number of molecules, sites or subunits per partner or assembly.
